Measured values from US20260265359A1.
Read-outs that look alike come from different tables or passages of the source.

Columns and labels:
[1] = molecular target: human IL-6R overexpressed on engineered CHO-S cells (human) (UniProt P08887); assay: FACS competition: antibody with biotinylated human IL-6 and CHO-S cells overexpressing human IL-6R; blocked: IL-6 binding to IL-6R
[2] = molecular target: recombinant human VEGF-A165 (human) (UniProt P15692)
[3] = molecular target: recombinant human VEGF-A165 (human) (UniProt P15692); assay: ELISA on plate-coated recombinant human VEGF-A165; anti-human IgG1-Fc-HRP, OD450
[4] = molecular target: recombinant human VEGF-A165 (human) (UniProt P15692); remark: listed apart in the source
[5] = molecular target: recombinant human VEGF-A165 (human) (UniProt P15692); remark: listed apart in the source
[6] = molecular target: T1, recombinant human PIGF (human) (UniProt P49763); assay: SPR Biacore, 25 C; test antibody captured by anti-human IgG (Fc) on CM5 chip, target protein as analyte; 1:1 model
T1 sequence (looked up): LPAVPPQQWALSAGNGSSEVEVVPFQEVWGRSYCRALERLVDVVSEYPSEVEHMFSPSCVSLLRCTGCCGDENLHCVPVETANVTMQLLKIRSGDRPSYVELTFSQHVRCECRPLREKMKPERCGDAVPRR

[7] = molecular target: T2, recombinant human VEGF-B167 (human) (UniProt P49765); assay: as above
T2 sequence (looked up): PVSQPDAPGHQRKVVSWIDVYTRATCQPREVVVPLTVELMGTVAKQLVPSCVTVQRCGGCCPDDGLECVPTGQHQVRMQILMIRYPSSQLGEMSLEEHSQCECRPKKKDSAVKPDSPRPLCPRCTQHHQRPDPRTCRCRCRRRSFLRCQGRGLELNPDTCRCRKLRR

[8] = molecular target: recombinant human VEGF-A165 (human) (UniProt P15692); assay: as above
[9] = molecular target: T1, recombinant human PIGF (human); assay: ELISA on plate-coated recombinant human PIGF; anti-human IgG1-Fc-HRP, OD450
[10] = molecular target: T2, recombinant human VEGF-B167 (human); assay: ELISA on plate-coated recombinant human VEGF-B167; anti-human IgG1-Fc-HRP, OD450
[11] = molecular target: T1, recombinant human PIGF (human); assay: SPR Biacore, 25 C; test antibody captured by anti-human IgG (Fc) on CM5 chip, target protein as analyte; 1:1 model; remark: listed apart in the source
[12] = molecular target: T2, recombinant human VEGF-B167 (human); assay: as above; remark: listed apart in the source
[13] = molecular target: recombinant human VEGF-A165 (human) (UniProt P15692); assay: as above; remark: listed apart in the source
[14] = molecular target: recombinant human Ang-2 (human) (UniProt O15123); assay: ELISA on plate-coated recombinant human Ang-2; anti-human IgG1-Fc-HRP, OD450
[15] = molecular target: T1, recombinant human PIGF (human); assay: ELISA on plate-coated recombinant human PIGF; anti-human IgG1-Fc-HRP, OD450; remark: listed apart in the source

Conbercept (Fc fusion), sequence (chain): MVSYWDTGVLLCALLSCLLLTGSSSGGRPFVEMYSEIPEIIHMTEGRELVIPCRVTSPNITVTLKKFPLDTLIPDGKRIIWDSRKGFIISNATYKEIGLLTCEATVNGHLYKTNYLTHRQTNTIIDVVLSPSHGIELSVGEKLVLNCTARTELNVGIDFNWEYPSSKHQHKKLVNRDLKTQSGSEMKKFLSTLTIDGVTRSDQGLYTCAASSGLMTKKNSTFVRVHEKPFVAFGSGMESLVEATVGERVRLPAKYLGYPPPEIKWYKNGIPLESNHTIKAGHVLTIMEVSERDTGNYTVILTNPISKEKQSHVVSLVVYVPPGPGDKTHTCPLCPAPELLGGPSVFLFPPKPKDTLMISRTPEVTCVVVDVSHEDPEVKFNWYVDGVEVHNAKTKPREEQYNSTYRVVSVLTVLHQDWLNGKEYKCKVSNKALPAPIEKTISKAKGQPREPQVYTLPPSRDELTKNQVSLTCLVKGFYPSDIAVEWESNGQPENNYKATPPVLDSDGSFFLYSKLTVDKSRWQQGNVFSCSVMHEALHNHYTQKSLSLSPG
Aflibercept (Fc fusion), sequence (chain): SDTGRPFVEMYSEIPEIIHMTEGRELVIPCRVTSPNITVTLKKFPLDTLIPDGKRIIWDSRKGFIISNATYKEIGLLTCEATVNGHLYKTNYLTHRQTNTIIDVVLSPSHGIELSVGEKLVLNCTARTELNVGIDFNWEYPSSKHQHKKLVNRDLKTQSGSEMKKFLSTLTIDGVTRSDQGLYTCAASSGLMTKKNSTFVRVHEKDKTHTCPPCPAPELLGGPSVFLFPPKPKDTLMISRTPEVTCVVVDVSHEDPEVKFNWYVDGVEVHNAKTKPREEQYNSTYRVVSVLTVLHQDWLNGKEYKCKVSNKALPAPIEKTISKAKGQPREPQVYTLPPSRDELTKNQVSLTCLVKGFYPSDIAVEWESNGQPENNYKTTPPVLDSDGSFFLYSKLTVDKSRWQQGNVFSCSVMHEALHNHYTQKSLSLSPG
recombinant human VEGF-A165 (human), sequence (P15692 other isoform, or with tags, fused parts or gaps limits assumed): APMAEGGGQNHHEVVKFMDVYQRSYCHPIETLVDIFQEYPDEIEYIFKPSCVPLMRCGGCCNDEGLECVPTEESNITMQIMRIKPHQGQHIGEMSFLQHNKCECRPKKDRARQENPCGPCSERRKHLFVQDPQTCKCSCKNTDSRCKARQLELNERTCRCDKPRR
recombinant human Ang-2 (human), sequence (O15123 19-496 limits assumed): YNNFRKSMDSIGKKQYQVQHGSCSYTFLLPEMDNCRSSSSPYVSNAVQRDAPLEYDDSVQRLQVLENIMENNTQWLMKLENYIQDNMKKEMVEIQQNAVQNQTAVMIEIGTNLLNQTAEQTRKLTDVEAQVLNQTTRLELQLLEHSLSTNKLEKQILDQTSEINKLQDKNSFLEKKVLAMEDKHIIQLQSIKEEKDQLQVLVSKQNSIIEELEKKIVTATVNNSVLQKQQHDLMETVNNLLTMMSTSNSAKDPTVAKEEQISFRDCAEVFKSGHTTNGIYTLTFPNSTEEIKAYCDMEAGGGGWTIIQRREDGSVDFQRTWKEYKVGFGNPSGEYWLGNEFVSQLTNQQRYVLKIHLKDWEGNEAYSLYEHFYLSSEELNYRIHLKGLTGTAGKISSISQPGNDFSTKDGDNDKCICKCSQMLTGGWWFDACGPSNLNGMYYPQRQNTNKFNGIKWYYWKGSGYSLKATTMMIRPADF
human IL-6R overexpressed on engineered CHO-S cells (human), sequence (P08887 20-468, change not shown): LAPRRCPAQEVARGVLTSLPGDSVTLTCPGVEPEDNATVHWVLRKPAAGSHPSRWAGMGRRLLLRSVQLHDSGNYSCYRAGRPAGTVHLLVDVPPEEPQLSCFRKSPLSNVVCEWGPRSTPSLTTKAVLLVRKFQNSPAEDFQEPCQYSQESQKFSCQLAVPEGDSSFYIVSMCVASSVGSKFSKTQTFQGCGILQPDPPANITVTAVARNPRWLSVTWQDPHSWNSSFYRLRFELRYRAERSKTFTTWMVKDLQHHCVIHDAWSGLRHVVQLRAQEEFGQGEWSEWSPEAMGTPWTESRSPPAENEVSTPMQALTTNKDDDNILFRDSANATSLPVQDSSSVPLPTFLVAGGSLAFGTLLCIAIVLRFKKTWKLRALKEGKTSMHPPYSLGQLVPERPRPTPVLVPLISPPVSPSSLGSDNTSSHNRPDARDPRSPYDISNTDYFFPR

Vobarilizumab-Fc (Fc fusion)
IC50 [1]: 0.524 nM

Aflibercept (Fc fusion)
IC50, inhibition of VEGF-A165-stimulated VEGFR-2 NF-AT luciferase reporter (HEK-293), luminescence [2]: 0.606 nM | EC50 [3]: 0.008 nM | IC50, inhibition of VEGF-A165-stimulated VEGFR-2 NF-AT luciferase reporter (HEK-293), luminescence [4]: 0.595 nM | IC50, inhibition of VEGF-A165-stimulated VEGFR-2 NF-AT luciferase reporter (HEK-293), luminescence [5]: 0.326 nM | Kd [6]: 0.148 nM | Kd [7]: 1.85 nM | Kd [8]: 0.00257 nM | EC50 [9]: 0.012 nM | EC50 [10]: 0.076 nM | Kd [11]: 0.106 nM | Kd [12]: 1.37 nM | Kd [13]: 0.00344 nM

Tie-2-Fc (Fc fusion)
EC50 [14]: 8.32 nM

Conbercept (Fc fusion)
EC50 [3]: 0.078 nM | EC50 [15]: 0.103 nM | EC50 [9]: 0.089 nM | EC50 [10]: 0.009 nM
